Target: T1, EngHD (Engrailed homeodomain, DNA-binding domain) (Drosophila melanogaster) (UniProt P02836)
T1 sequence: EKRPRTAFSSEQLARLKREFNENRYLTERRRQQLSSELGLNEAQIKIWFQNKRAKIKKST
Experiment: FCS
Conditions: ~1 nM Alexa 488-EngHD with unlabeled dsDNA titrated, ionic strength 50 mM (NaCl) unless stated, buffer, pH and temperature not in the material

CCATGGTTCTTAACCAAATTGAATTCTCGCCACCGATCGTGTTCGCCCGAAATAAATCTGGCCGAAAAGCCATCAATCTACAATCTAACTGTGCCTCGGTTTATACCTCCAACTGCCGTTCACCGAAAAGGCCGACAGTTTTCCGACAAAGACAAATTCTTAACCAAATTGAATTCTCGCCACCGATCGTGTTCGCCCGAAATAAATCTGGCCGAAAAGCCATCAATCTACAATCTAACTGTGCCTCGGTTTATACCTCCAACTGCCGTTCACCGAAAAGGCCGACAGTTTTCCGACTAATTGTTCTTAACCAAATTGAATTCTCGCCACCGATCGTGTTCGCCCGAAATAAATCTGGCCGAAAAGCCATCAATCTACAATCTAACTGTGCCTCGGTTTATACCTCCAACTGCCGTTCACCGAAAAGGCCGACAGTTTTCCGACTTCTTAACCAAATTGAATTCTCGCCACCGATCGTGTTCGCCCGAAATAAATCTGGCCGAAAAGCCATCAATCTACAATCTAACTGTGCCTCGGTTTATACCTCCAACTGCCGTTCACCGAAAAGGCCGACAGTTTTCCGACAAAGACAAAAAGCTT (double strand) [600 bp TAATTG]
Kd: 2.2 nM

full beta3-tubulin gene 7219 bp
Kd (upper estimate, text: sub-nM): < 0.7 nM
